The supplement of paper PMC11316812
± gives the standard deviation of the averaged measurements.

Tests used:
MCF7 = assay: percentage of EdU-negative (G0-arrested) nuclei per well, 72 h; higher = more G0 arrest; conditions: reference: sequence is the full UniProt precursor, the tested protein was the secreted form or ectodomain
hTERT-HMEC = assay: as above; conditions: reference: sequence is the full UniProt precursor, the tested protein was the secreted form or ectodomain
[1] = protein concentration 0.0225 µM
[2] = protein concentration 0.03125 µM
[3] = protein concentration 0.3125 µM
[4] = protein concentration 0.0209225 µM
[5] = protein concentration 0.209225 µM
[6] = protein concentration 0.0070625 µM
[7] = protein concentration 0.070625 µM
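Further: secreted proteins added to cultured cells, EdU pulse at the end, nuclei found by Hoechst imaging, EdU status from nuclear versus surrounding ring intensity ratio, PBS as neutral control.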

“MGAYARASGVCARGCLDSAGPWTMSRALRPPLPPLCFFLLLLAAAGARAGGYETCPTVQPNMLNVHLLPHTHDDVGWLKTVDQYFYGIKNDIQHAGVQYILDSVISALLADPTRRFIYVEIAFFSRWWHQQTNATQEVVRDLVRQGRLEFANGGWVMNDEAATHYGAIVDQMTLGLRFLEDTFGNDGRPRVAWHIDPFGHSREQASLFAQMGFDGFFFGRLDYQDKWVRMQKLEMEQVWRASTSLKPPTADLFTGVLPNGYNPPRNLCWDVLCVDQPLVEDPRSPEYNAKELVDYFLNVATAQGRYYRTNHTVMTMGSDFQYENANMWFKNLDKLIRLVNAQQAKGSSVHVLYSTPACYLWELNKANLTWSVKHDDFFPYADGPHQFWTGYFSSRPALKRYERLSYNFLQVCNQLEALVGLAANVGPYGSGDSAPLNEAMAVLQHHDAVSGTSRQHVANDYARQLAAGWGPCEVLLSNALARLRGFKDHFTFCQQLNISICPLSQTAARFQVIVYNPLGRKVNWMVRLPVSEGVFVVKDPNGRTVPSDVVIFPSSDSQAHPPELLFSASLPALGFSTYSVAQVPRWKPQARAPQPIPRRSWSPALTIENEHIRATFDPDTGLLMEIMNMNQQLLLPVRQTFFWYNASIGDNESDQASGAYIFRPNQQKPLPVSRWAQIHLVKTPLVQEVHQNFSAWCSQVVRLYPGQRHLELEWSVGPIPVGDTWGKEVISRFDTPLETKGRFYTDSNGREILERRRDYRPTWKLNQTEPVAGNYYPVNTRIYITDGNMQLTVLTDRSQGGSSLRDGSLELMVHRRLLKDDGRGVSEPLMENGSGAWVRGRHLVLLDTAQAAAAGHRLLAEQEVLAPQVVLAPGGGAAYNLGAPPRTQFSGLRRDLPPSVHLLTLASWGPEMVLLRLEHQFAVGEDSGRNLSAPVTLNLRDLFSTFTITRLQETTLVANQLREAASRLKWTTNTGPTPHQTPYQLDPANITLEPMEIRTFLASVQWKEVDG” was tested, and the “percentage of EdU-negative” value (MCF7; [1]) was 24.7 ± 1.5%, the “percentage of EdU-negative” value (MCF7; protein concentration 0.225 µM) was 24.7 ± 1.2% and the “percentage of EdU-negative” value (hTERT-HMEC; [1]) was 4.43 ± 0.26%. For the same sequence, the “percentage of EdU-negative” value (hTERT-HMEC; protein concentration 0.225 µM) was 5.51 ± 0.44%.

For “MKLWDVVAVCLVLLHTASAFPLPAGKRPPEAPAEDRSLGRRRAPFALSSDSNMPEDYPDQFDDVMDFIQATIKRLKRSPDKQMAVLPRRERNRQAAAANPENSRGKGRRGQRGKNRGCVLTAIHLNVTDLGLGYETKEELIFRYCSGSCDAAETTYDKILKNLSRNRRLVSDKVGQACCRPIAFDDDLSFLDDNLVYHILRKHSAKRCGCI”, the “percentage of EdU-negative” value (MCF7; [2]) was 24.9 ± 0.95%, the “percentage of EdU-negative” value (MCF7; [3]) was 29.1 ± 0.3% and the “percentage of EdU-negative” value (hTERT-HMEC; [2]) was 5.08 ± 0.53%. The “percentage of EdU-negative” value (hTERT-HMEC; [3]) was 5.86 ± 0.094%.

In the case of “MPGQELRTVNGSQMLLVLLVLSWLPHGGALSLAEASRASFPGPSELHSEDSRFRELRKRYEDLLTRLRANQSWEDSNTDLVPAPAVRILTPEVRLGSGGHLHLRISRAALPEGLPEASRLHRALFRLSPTASRSWDVTRPLRRQLSLARPQAPALHLRLSPPPSQSDQLLAESSSARPQLELHLRPQAARGRRRARARNGDHCPLGPGRCCRLHTVRASLEDLGWADWVLSPREVQVTMCIGACPSQFRAANMHAQIKTSLHRLKPDTVPAPCCVPASYNPMVLIQKTDTGVSLQTYDDLLAKDCHCI”, the “percentage of EdU-negative” value (MCF7; [4]) is reported as 23.8 ± 1.7%, the “percentage of EdU-negative” value (MCF7; [5]) is reported as 30.5 ± 2.1% and the “percentage of EdU-negative” value (hTERT-HMEC; [4]) is reported as 4.78 ± 0.13%. The “percentage of EdU-negative” value (hTERT-HMEC; [5]) was 8.07 ± 2.2%.

“MRLLCGLWLWLSLLKVLQAQTPTPLPLPPPMQSFQGNQFQGEWFVLGLAGNSFRPEHRALLNAFTATFELSDDGRFEVWNAMTRGQHCDTWSYVLIPAAQPGQFTVDHGVEPGADREETRVVDSDYTQFALMLSRRHTSRLAVLRISLLGRSWLLPPGTLDQFICLGRAQGLSDDNIVFPDVTGWSPQASVC [Q6JVE5]” was tested, and the “percentage of EdU-negative” value (MCF7; [1]) was 28.3 ± 4%, the “percentage of EdU-negative” value (MCF7; protein concentration 0.225 µM) was 32.23 ± 0.31% and the “percentage of EdU-negative” value (hTERT-HMEC; [1]) was 4.84 ± 0.32%. The “percentage of EdU-negative” value (hTERT-HMEC; protein concentration 0.225 µM) was 5.1 ± 0.82%.

“MLRAALPALLLPLLGLAAAAVADCPSSTWIQFQDSCYIFLQEAIKVESIEDVRNQCTDHGADMISIHNEEENAFILDTLKKQWKGPDDILLGMFYDTDDASFKWFDNSNMTFDKWTDQDDDEDLVDTCAFLHIKTGEWKKGNCEVSSVEGTLCKTAIPYKRKYLSDNHILISALVIASTVILTVLGAIIWFLYKKHSDSRFTTVFSTAPQSPYNEDCVLVVGEENEYPVQFD [Q8IX05]” was tested, and the “percentage of EdU-negative” value (MCF7; [1]) was 25.83 ± 0.12%, the “percentage of EdU-negative” value (MCF7; protein concentration 0.225 µM) was 25.38 ± 0.14% and the “percentage of EdU-negative” value (hTERT-HMEC; [1]) was 4.48 ± 0.56%. The “percentage of EdU-negative” value (hTERT-HMEC; protein concentration 0.225 µM) was 5.29 ± 0.55%.

With “MGFQKFSPFLALSILVLLQAGSLHAAPFRSALESSPADPATLSEDEARLLLAALVQDYVQMKASELEQEQEREGSSLDSPRSKRCGNLSTCMLGTYTQDFNKFHTFPQTAIGVGAPGKKRDMSSDLERDHRPHVSMPQNAN” the “percentage of EdU-negative” value (MCF7; [2]) was 26.7 ± 2.5%, the “percentage of EdU-negative” value (MCF7; [3]) was 25.55 ± 0.19% and the “percentage of EdU-negative” value (hTERT-HMEC; [2]) was 5.19 ± 0.42%. For the same sequence, the “percentage of EdU-negative” value (hTERT-HMEC; [3]) was 5.1 ± 0.19%.

For “MGAARLLPNLTLCLQLLILCCQTQGENHPSPNFNQYVRDQGAMTDQLSRRQIREYQLYSRTSGKHVQVTGRRISATAEDGNKFAKLIVETDTFGSRVRIKGAESEKYICMNKRGKLIGKPSGKSKDCVFTEIVLENNYTAFQNARHEGWFMAFTRQGRPRQASRSRQNQREAHFIKRLYQGQLPFPNHAEKQKQFEFVGSAPTRRTKRTRRPQPLT”, the “percentage of EdU-negative” value (MCF7; [6]) was 26.1 ± 0.65%, the “percentage of EdU-negative” value (MCF7; [7]) was 25.6 ± 3.5% and the “percentage of EdU-negative” value (hTERT-HMEC; [6]) was 4.842 ± 0.02%. The “percentage of EdU-negative” value (hTERT-HMEC; [7]) was 5.5 ± 0.25%.
